Reference: patent US20030166162

Columns and labels:
[1] = system: poly histidine tagged chymosin pro-peptide carp growth hormone fusion protein
[2] = system: GST-Chymosin pro-peptide-Hirudin fusion protein

Substance | cleavage of the fusion protein at pH 2, SDS-PAGE and Western blot [1] | cleavage of the fusion protein at pH 2.0, Western blotting (results not shown) [2] | cleavage of the fusion protein at pH 4.5, Western blotting (results not shown) [2] | cleavage of the fusion protein, SDS-PAGE and Western blot [1]
chymosin (Sigma) | the cleavage with chymosin yielded a protein band corresponding to the expected theoretical molecular mass of the cGH (approximately 22 kDa) polypeptide | complete cleavage was also observed when the GST-Pro-Hirudin fusion which was treated at pH 2.0 and supplemented with 2 ug chymosin | apart from treatment at pH 4.5, complete cleavage was also observed | –
enterokinase | – | – | – | cleavage of the fusion protein was observed with enterokinase yielding a protein band corresponding to the calculated molecular mass of the Pro-cGH fusion (26 kDa)
